Among the data in paper PMC4258425 are Km, kcat and kcat/Km values, retold here.

Conditions in all cases: 100 mM Na2HPO4 pH 8.0, 22 °C
Substrate in data set [1]: CC#CC(=O)C(=O)O
The data set can be described thus: hydratase kinetics. The format is biochemical, Paraburkholderia phymatum.

Substrate in data set [2]: CC#CC(=O)C(=O)O
The data set can be described thus: hydratase kinetics. The format is biochemical, Bacillus subtilis.

Substrate in data set [3]: O=CCC(=O)O
The data set can be described thus: decarboxylase kinetics. Format: biochemical, Bacillus subtilis.

B1: Bp4401 (Paraburkholderia phymatum STM815) (protein)
chain: PLTRIALRAGKPAAYRQALTEGIQRALIAEFNVPEDDIFMVISEQDESNFVYNRNYLDIQRSDDFVLIQLTVTNSRTQEQKKALYKRIVDNLAEYPGVRREDVFINLVEVLKENWSFGNGIAQYAL
As for B1, in data set [1], the Km amounted to 5 ± 0.35 mM, the catalytic constant (kcat) was 14 ± 0.1 s⁻¹ and the specificity constant (kcat/Km) was 2800 M⁻¹ s⁻¹.

B2: YodA (Bacillus subtilis subsp. subtilis str. 168) (protein)
chain: PLLRFDVIEGRDEKSLQLLLDTAHQAMVEAFGVPERDRYQIVHQHPANELIIQDAGLGFQRTKDMVIISMTSKARTESQKEKLYALLAERLEKKCEISPDDLMVSITENGDADWSFGLGEAQFLNGKL
As for B2, in data set [2], the Km is 0.27 ± 0.04 mM, the turnover number (kcat) worked out at 0.03 ± 0.001 s⁻¹ and the kcat/Km came out at 111 M⁻¹ s⁻¹. In addition, in data set [3], the Michaelis constant (Km) stood at 6.8 ± 0.94 mM, the turnover number (kcat) amounted to 12.2 ± 1.1 s⁻¹ and the kcat/Km is 1300 M⁻¹ s⁻¹.
